Source: the supplement of paper PMC10126150
± gives the standard deviation of the averaged measurements.

Tested on: ATP
Assay: switch fluorescence ratio, 500 uM ATP over buffer (Cy3 cluster intensity, sum of 5 cycles each) (fold (ratio)); higher = stronger signal-on switching upon ATP binding; sequences stand for … in TCGTCGGCAGCGTCAGATGTGTATAAGAGACAGTTTTTTTTTTTTTTTTTTTTTTTTT…TC
Conditions: aptamer strand: ATP DNA aptamer (quencher-CACCTGGGGGAGTATTGCGGAGGAAGG + anchor), 100 nM annealed; ATP concentration: 500 uM
How it was run: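 The quencher-labelled ATP aptamer, at 100 nM, was annealed to Cy3-labelled switching-strand clusters on a modified Illumina MiSeq flow-cell. The clusters were imaged in selection buffer, then after 15 min with 500 uM ATP at 22 °C, and this buffer/ATP cycle ran five times with NaOH stripping and re-annealing between runs. Per-cluster fluorescence ratios, summed target-cycle over summed buffer-cycle Cy3 intensity, were averaged per switch-domain sequence. Clusters outside 100-1000 RFU were excluded.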
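Also: ATP exposure 15 min at 22 °C before imaging.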

TGGGGCTTTG
switch fluorescence ratio: 1.03 ± 0.026

ATGTAATCAT
switch fluorescence ratio: 1.01 ± 0.024

GTTTCCGTTT
switch fluorescence ratio: 0.973 ± 0.017

TTGATAAAAA
switch fluorescence ratio: 0.998 ± 0.083

GGGGTAATAT
switch fluorescence ratio: 1.06 ± 0.053

GTGTGAGGGT
switch fluorescence ratio: 1.04 ± 0.053

GAGGGTTGCT
switch fluorescence ratio: 1.01 ± 0.036

CGTGTTTTAC
switch fluorescence ratio: 1.018 ± 0.007

GAGACCCGTG
switch fluorescence ratio: 0.9867 ± 0.0059

AAGGAAGACT
switch fluorescence ratio: 0.974 ± 0.021

ATATAGGCTA
switch fluorescence ratio: 0.995 ± 0.011

GTTCAAGGCT
switch fluorescence ratio: 1.0016 ± 0.0002

GTGCTTGGCC
switch fluorescence ratio: 1 ± 0.047

AAGGTCCAGT
switch fluorescence ratio: 1.13 ± 0.23

GGGGGGTAGA
switch fluorescence ratio: 1.02 ± 0.043

AGTAAGGTTA
switch fluorescence ratio: 1 ± 0.024

GCATAGTCTG
switch fluorescence ratio: 1.038 ± 0.0042

TTGGGGAGGC
switch fluorescence ratio: 0.9835 ± 0.0015

GAGAAAGTGG
switch fluorescence ratio: 0.9924 ± 0.001

TGACTTAACT
switch fluorescence ratio: 1.09 ± 0.034

AGAGGTTTGG
switch fluorescence ratio: 0.9944 ± 0.0051

CTTGACAGA
switch fluorescence ratio: 1.03 ± 0.024

TATAGAAATA
switch fluorescence ratio: 0.998 ± 0.017

ATGCGCTAAT
switch fluorescence ratio: 1.07 ± 0.013

GCCAGCAAGC
switch fluorescence ratio: 2.25 ± 0.34

CTAAGGCGTT
switch fluorescence ratio: 0.999 ± 0.013

ATTGGAGTGG
switch fluorescence ratio: 0.994 ± 0.032

GTGACATGGA
switch fluorescence ratio: 1 ± 0.014

TTCGGATGGG
switch fluorescence ratio: 1 ± 0.034

CGTTCTGAGT
switch fluorescence ratio: 0.955 ± 0.016

CTTATTGTTT
switch fluorescence ratio: 0.995 ± 0.069

TGGGGGTCGC
switch fluorescence ratio: 1.01 ± 0.019

CATTGGAGCA
switch fluorescence ratio: 1.027 ± 0.0086

ACGGGGTGTC
switch fluorescence ratio: 1.08 ± 0.089

TCTAGTTAAA
switch fluorescence ratio: 0.986 ± 0.0074

TTACGGGCTC
switch fluorescence ratio: 0.985 ± 0.058

GTGGAAAGGG
switch fluorescence ratio: 1.01 ± 0.041

CTGATTCAGA
switch fluorescence ratio: 0.98 ± 0.019

CAGTTAGAAA
switch fluorescence ratio: 0.9952 ± 0.0075

TTTGGATACA
switch fluorescence ratio: 0.9739 ± 0.0012

TTAGTACATG
switch fluorescence ratio: 0.976 ± 0.019

AACAAGCTAT
switch fluorescence ratio: 1.03 ± 0.055

AAAAATAGGG
switch fluorescence ratio: 1.03 ± 0.04

GGGGTATCTC
switch fluorescence ratio: 0.986 ± 0.021

GAGAGTATGT
switch fluorescence ratio: 0.998 ± 0.043

TTAAGGCTAA
switch fluorescence ratio: 1.03 ± 0.038

ACGTGACCAT
switch fluorescence ratio: 1.33 ± 0.047

ACGTCGATGG
switch fluorescence ratio: 0.995 ± 0.019

TCCTGGGGAT
switch fluorescence ratio: 0.99 ± 0.039

TTTGGGGTTC
switch fluorescence ratio: 1.02 ± 0.044

TTTGGGGTGC
switch fluorescence ratio: 1.09 ± 0.12

CCTTTTATTC
switch fluorescence ratio: 1.01 ± 0.03

TCATTTAGAG
switch fluorescence ratio: 0.977 ± 0.019

CAACCGGTTG
switch fluorescence ratio: 0.984 ± 0.017

AGGAACGCGG
switch fluorescence ratio: 1.04 ± 0.018

GTGCTTGTGT
switch fluorescence ratio: 1.01 ± 0.04

TCATTGTGCT
switch fluorescence ratio: 0.975 ± 0.015

AATCTTTATT
switch fluorescence ratio: 1.008 ± 0.0018

AGACGATGAG
switch fluorescence ratio: 0.933 ± 0.026

GGAATACTAG
switch fluorescence ratio: 1.14 ± 0.053

ACTTAGACAC
switch fluorescence ratio: 1.095 ± 0.0089

TTTTCTTTGG
switch fluorescence ratio: 1.03 ± 0.077

GAGGGTGGGG
switch fluorescence ratio: 1.01 ± 0.04

TATTCAATTT
switch fluorescence ratio: 1 ± 0.021

ACTGAGTAA
switch fluorescence ratio: 1.01 ± 0.076

CGGTATTCCG
switch fluorescence ratio: 0.945 ± 0.017

TTTCCCGGAT
switch fluorescence ratio: 1.1 ± 0.14

TTGTTTAACG
switch fluorescence ratio: 0.99757 ± 0.00042

AAGGTAGGGC
switch fluorescence ratio: 1.014 ± 0.008

CAAATGGGAA
switch fluorescence ratio: 0.99 ± 0.016

GGCTGGGTTA
switch fluorescence ratio: 1 ± 0.026

TAAAGGTTCT
switch fluorescence ratio: 1.02 ± 0.03

AAAAGAACGA
switch fluorescence ratio: 1.05 ± 0.074

ACGATGTTGG
switch fluorescence ratio: 0.994 ± 0.023

TGTTATAGGG
switch fluorescence ratio: 1.03 ± 0.033

TTATTTGACT
switch fluorescence ratio: 1.01 ± 0.041

GGATTTAGTA
switch fluorescence ratio: 1.01 ± 0.034

TTCTTGGAAT
switch fluorescence ratio: 0.969 ± 0.049

TTGTTTGATG
switch fluorescence ratio: 1.01 ± 0.011

TTCAAGCTTT
switch fluorescence ratio: 1.01 ± 0.022

GGTTGGTCTA
switch fluorescence ratio: 0.979 ± 0.028

TTTCGAAACT
switch fluorescence ratio: 1 ± 0.038

TTGACGTTGC
switch fluorescence ratio: 1.01 ± 0.033

TTTTTGGCCG
switch fluorescence ratio: 1.06 ± 0.034

GTGGTAAATG
switch fluorescence ratio: 1.01 ± 0.035

CCGAACGTTT
switch fluorescence ratio: 2.31 ± 0.47

CGGATTCCCC
switch fluorescence ratio: 1.06 ± 0.011

GCTCGTTTTG
switch fluorescence ratio: 0.981 ± 0.043

ATATTCTACT
switch fluorescence ratio: 1.025 ± 3.1e-05

ATCAGTTTTC
switch fluorescence ratio: 0.985 ± 0.0013

CGGAGCGCGT
switch fluorescence ratio: 0.991 ± 0.019

TTTTTCCAAC
switch fluorescence ratio: 1.02 ± 0.012

AATGGGGGAC
switch fluorescence ratio: 1.001 ± 0.0025

AGAGCAATTG
switch fluorescence ratio: 1.19 ± 0.014

TTAAATCATA
switch fluorescence ratio: 0.99742 ± 0.00093

TTTCAGTCGC
switch fluorescence ratio: 0.9995 ± 0.0047

AAAGACGGTT
switch fluorescence ratio: 0.997 ± 0.013

CAATCGACTC
switch fluorescence ratio: 1.047 ± 0.0037

GCTGCTGGTA
switch fluorescence ratio: 1.02 ± 0.024

GGACATGGAC
switch fluorescence ratio: 0.9775 ± 0.0044

TAATTAATAG
switch fluorescence ratio: 0.9971 ± 0.0031

TGAAATGATG
switch fluorescence ratio: 0.9977 ± 0.0082

GAAATACTTT
switch fluorescence ratio: 1.03 ± 0.014

AGTATGTGGA
switch fluorescence ratio: 0.9729 ± 0.0071

TTCAAAGTTT
switch fluorescence ratio: 0.993 ± 0.015

AGGGGGTTCG
switch fluorescence ratio: 1.02 ± 0.027

ATTGGTCAGC
switch fluorescence ratio: 0.982 ± 0.035

TTTCGTGAAA
switch fluorescence ratio: 0.9975 ± 0.0019

AGATGTATTT
switch fluorescence ratio: 0.997 ± 0.032

ACAACGGGTG
switch fluorescence ratio: 2.1 ± 0.24

AGGTTAATGT
switch fluorescence ratio: 0.996 ± 0.032

TCTGGTATGG
switch fluorescence ratio: 0.994 ± 0.0034

CGGGTGAGGA
switch fluorescence ratio: 1.04 ± 0.04

TTTGATGTAA
switch fluorescence ratio: 1.01 ± 0.026

GGGCCAGGTA
switch fluorescence ratio: 0.985 ± 0.015

GACGGGTGGC
switch fluorescence ratio: 1.11 ± 0.02

TCAATTTTGC
switch fluorescence ratio: 1.02 ± 0.034

TTGTTATGCG
switch fluorescence ratio: 0.995 ± 0.012

TATCGGTCTA
switch fluorescence ratio: 1.006 ± 0.005

ATTGCTATTC
switch fluorescence ratio: 1.03 ± 0.014

ATAAGATTGT
switch fluorescence ratio: 0.963 ± 0.058

CCCCGGGTAA
switch fluorescence ratio: 1.33 ± 0.012

TACGGGGGGT
switch fluorescence ratio: 1.02 ± 0.026

AATTCGTATC
switch fluorescence ratio: 1.008 ± 0.0024

CTGAGGGCTG
switch fluorescence ratio: 1.03 ± 0.028

CGGGTTAAAA
switch fluorescence ratio: 0.9714 ± 0.0034

TTAGAGTGGT
switch fluorescence ratio: 1.01 ± 0.033

TCAAGGTTCT
switch fluorescence ratio: 0.998 ± 0.014

AAGATATTCT
switch fluorescence ratio: 1.027 ± 0.0091

AGCGAATGGT
switch fluorescence ratio: 0.951 ± 0.012

AAGGTTTGTA
switch fluorescence ratio: 0.9899 ± 0.0068

CCTTGCACG
switch fluorescence ratio: 1.18 ± 0.22

TGATCCGGAG
switch fluorescence ratio: 1.08 ± 0.038

GATCAGCCCG
switch fluorescence ratio: 1.016 ± 0.005

TTGGGGGTGA
switch fluorescence ratio: 1 ± 0.042

TTTGGCTTGG
switch fluorescence ratio: 0.992 ± 0.031

TTTTCGCTGT
switch fluorescence ratio: 1.02 ± 0.016

ATTTGATTTG
switch fluorescence ratio: 1 ± 0.046

CGTATAGTTA
switch fluorescence ratio: 0.987 ± 0.022

ATGGACGTGT
switch fluorescence ratio: 0.9935 ± 0.0033

GTTTCGTGAG
switch fluorescence ratio: 0.994 ± 0.054

GAGGCTCATT
switch fluorescence ratio: 0.964 ± 0.035

GTTTTTTCGG
switch fluorescence ratio: 0.993 ± 0.023

GTTAAAATAC
switch fluorescence ratio: 1.13 ± 0.014

TGCCAGTTTG
switch fluorescence ratio: 0.9907 ± 0.0065

ATCTTTTTGT
switch fluorescence ratio: 1.014 ± 0.005

CACTCTGCTG
switch fluorescence ratio: 1.19 ± 0.012

CGGTCTGTT
switch fluorescence ratio: 0.9878 ± 0.0066

TTTCATAGTC
switch fluorescence ratio: 1 ± 0.025

AATACAGCAT
switch fluorescence ratio: 1.03 ± 0.014

AGAATAAGAC
switch fluorescence ratio: 1.02 ± 0.085

GGGTCGGACG
switch fluorescence ratio: 1.028 ± 0.0088

CCGGATATGG
switch fluorescence ratio: 1.135 ± 0.0024

TGGGTCCTTG
switch fluorescence ratio: 0.9894 ± 0.0014

GATGAATGTC
switch fluorescence ratio: 1.04 ± 0.13

TCTGGTCATG
switch fluorescence ratio: 0.995 ± 0.014

AAGGTATCTG
switch fluorescence ratio: 1.03 ± 0.03

TGTTTCTTGA
switch fluorescence ratio: 1.01 ± 0.058

GGGTTCGTTA
switch fluorescence ratio: 0.993 ± 0.029

TTGTATAAA
switch fluorescence ratio: 1 ± 0.022

TAGGACGGGT
switch fluorescence ratio: 0.9932 ± 0.0054

TCAAAATATT
switch fluorescence ratio: 1.006 ± 0.0065

ATGCGATTTG
switch fluorescence ratio: 1 ± 0.057

AGGGCAGAGG
switch fluorescence ratio: 0.98599 ± 0.00021

TTTAACTAGC
switch fluorescence ratio: 1.034 ± 0.0063

CGGGGTATTT
switch fluorescence ratio: 1 ± 0.022

ACTCCATGCG
switch fluorescence ratio: 1.155 ± 0.0036

CGCGTCATGA
switch fluorescence ratio: 1.02 ± 0.0043

GACGTTTGGG
switch fluorescence ratio: 0.982 ± 0.022

GTTCTTTTGG
switch fluorescence ratio: 0.973 ± 0.01

GTTTTAACGG
switch fluorescence ratio: 1.02 ± 0.029

AGATTGGGGG
switch fluorescence ratio: 0.969 ± 0.034

TAGGTATTCA
switch fluorescence ratio: 0.9988 ± 0.0046

TGGTGTTTGG
switch fluorescence ratio: 0.979 ± 0.032

TTAATTTGGA
switch fluorescence ratio: 1.014 ± 0.0088

ATCAAGCAGT
switch fluorescence ratio: 1.41 ± 0.47

TTTAATTAT
switch fluorescence ratio: 0.99 ± 0.034

CAGAAGGGCC
switch fluorescence ratio: 0.997 ± 0.089

TGTTGGTGTA
switch fluorescence ratio: 0.994 ± 0.01

ACGCCAATGT
switch fluorescence ratio: 1.34 ± 0.076

AAGCCTTTGC
switch fluorescence ratio: 1.052 ± 0.0041

AATAACAAAA
switch fluorescence ratio: 0.995 ± 0.037

TCATGGGGGT
switch fluorescence ratio: 0.995 ± 0.028

TCGTAGGTGG
switch fluorescence ratio: 1.02 ± 0.063

TTGTTAAGGC
switch fluorescence ratio: 1.02 ± 0.037

TACTAGTTGT
switch fluorescence ratio: 0.99 ± 0.022

AAAGTTTGTT
switch fluorescence ratio: 1.025 ± 0.007

AAATTGTGTG
switch fluorescence ratio: 0.999 ± 0.0037

GGGATATTTG
switch fluorescence ratio: 0.999 ± 0.036

GGGGGAGCTA
switch fluorescence ratio: 1 ± 0.032

AATGTGGCTA
switch fluorescence ratio: 1.01 ± 0.037

ATTGAGGAAT
switch fluorescence ratio: 0.965 ± 0.064

ACAGGCTCCG
switch fluorescence ratio: 1.05 ± 0.038

TAGTTTTTTG
switch fluorescence ratio: 0.993 ± 0.053

ATTTGAGGGC
switch fluorescence ratio: 1.01 ± 0.033

TGATTGTGTA
switch fluorescence ratio: 0.987 ± 0.048

CTGAGGGGGG
switch fluorescence ratio: 0.985 ± 0.019

TTCGGTTAGA
switch fluorescence ratio: 1.02 ± 0.015

AGGAAAGGCG
switch fluorescence ratio: 1.09 ± 0.015

CAATGTGGGG
switch fluorescence ratio: 0.989 ± 0.056
